Target: wasl_mouse Wasl (UniProt Q91YD9)
Sequence (Q91YD9 whole entry): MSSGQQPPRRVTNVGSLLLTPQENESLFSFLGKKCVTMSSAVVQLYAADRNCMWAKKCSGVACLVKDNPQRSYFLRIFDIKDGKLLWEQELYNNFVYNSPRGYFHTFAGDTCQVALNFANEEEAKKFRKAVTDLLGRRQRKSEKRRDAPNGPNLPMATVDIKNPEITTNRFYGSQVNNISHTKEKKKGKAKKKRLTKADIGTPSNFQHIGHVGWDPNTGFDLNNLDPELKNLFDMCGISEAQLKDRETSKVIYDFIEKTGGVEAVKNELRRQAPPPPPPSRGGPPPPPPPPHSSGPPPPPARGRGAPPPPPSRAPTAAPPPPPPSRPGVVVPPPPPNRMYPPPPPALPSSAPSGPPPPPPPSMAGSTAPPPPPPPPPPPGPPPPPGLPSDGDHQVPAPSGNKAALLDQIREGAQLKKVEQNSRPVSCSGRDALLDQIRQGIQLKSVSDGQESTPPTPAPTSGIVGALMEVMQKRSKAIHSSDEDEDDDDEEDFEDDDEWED

Sequence of Src substrate cortactin (Mus musculus), Q60598 W525L (Q60598 whole entry W525L): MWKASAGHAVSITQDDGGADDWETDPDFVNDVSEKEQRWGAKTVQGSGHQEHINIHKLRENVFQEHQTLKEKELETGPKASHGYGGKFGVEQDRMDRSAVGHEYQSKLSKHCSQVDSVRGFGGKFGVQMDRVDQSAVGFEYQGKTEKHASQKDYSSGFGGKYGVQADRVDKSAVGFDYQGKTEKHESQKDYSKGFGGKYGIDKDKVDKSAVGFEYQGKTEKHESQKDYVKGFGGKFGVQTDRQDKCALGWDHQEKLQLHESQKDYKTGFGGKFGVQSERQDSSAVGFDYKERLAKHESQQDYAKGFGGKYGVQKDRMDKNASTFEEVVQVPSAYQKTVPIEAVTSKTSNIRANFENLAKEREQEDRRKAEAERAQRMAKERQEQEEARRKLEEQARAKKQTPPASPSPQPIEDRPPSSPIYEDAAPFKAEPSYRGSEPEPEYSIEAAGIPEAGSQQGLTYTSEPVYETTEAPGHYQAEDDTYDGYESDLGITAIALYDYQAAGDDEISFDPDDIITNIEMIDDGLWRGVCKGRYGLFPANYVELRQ

effect of a mutation on the interaction: disrupting interaction
Substance: Src substrate cortactin (Mus musculus), Q60598 W525L

Reference: IntAct's records for PubMed 15585574
